Our source for the Kd values is PMC7113243.

The target of the test is GST-tagged ID5 (human) (UniProt Q92793). The test can be described thus: BLI; GST-tagged ID5 immobilised on the biosensors; IQGAP1-F 0.1 to 19 uM, twelve concentrations; association and dissociation 60 s each; RT; double referenced against buffer and GST; steady state fitted 1:1. For orientation: BLI is a label-free optical method that tracks binding on a fibre tip over time.

By pKd is commonly meant the negative decadic logarithm of the Kd, by convention in mol/L. Higher therefore signals a small Kd.

pKd: −log10 of the molar value.

In turn, “IQGAP1-F, His-tagged IQGAP1 construct (residues 286-592 of IQGAP1) (from UniProt P46940 286-592) (domain or fragment)” showed a pKd of 6.40.
